The data set “mass photometry” deals with the molecule itself. Nature of the data set: mass photometry.
The data set “SEC-MALS” deals with the molecule itself. Nature of the data set: SEC-MALS. (SEC sorts molecules by how far they enter the pores of the column.)
The data set “MST” concerns the molecule itself. Briefly: MST.
The next data set addresses Cra (Escherichia coli, UniProt P0ACP1 1-334). Nature of the data set: EMSA. On the technique in general: Mobility shift assays separate free from complexed probe on a gel.
In another data set the target is PdeL;Cra (Escherichia coli;Escherichia coli, UniProt P21514;P0ACP1 1-362;1-334, |). Nature of the data set: EMSA.
Chain of PdeL;Cra (P0ACP1 whole entry, chain 2 of 2, one chain of several): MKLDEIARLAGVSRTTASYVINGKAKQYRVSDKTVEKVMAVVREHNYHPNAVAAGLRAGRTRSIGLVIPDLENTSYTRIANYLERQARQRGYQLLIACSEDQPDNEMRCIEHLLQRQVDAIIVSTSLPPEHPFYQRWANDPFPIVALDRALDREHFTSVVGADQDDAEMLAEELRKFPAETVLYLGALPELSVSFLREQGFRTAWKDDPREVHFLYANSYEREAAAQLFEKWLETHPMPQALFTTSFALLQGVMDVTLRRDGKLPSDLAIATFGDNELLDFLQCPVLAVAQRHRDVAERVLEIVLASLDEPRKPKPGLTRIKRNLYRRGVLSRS

Chain of Cra (P0ACP1 whole entry): as the sequence (P0ACP1 whole entry, chain 2 of 2, one chain of several) above

B1: PdeL, full-length c-di-GMP phosphodiesterase and transcription factor of E. coli (enzyme, UniProt P21514 1-362, looked up)
chain: MNSCDFRVFLQEFGTTVHLSLPGSVSEKERLLLKLLMQGMSVTEISQYRNRSAKTISHQKKQLFEKLGIQSDITFWRDIFFQYNPEIISATGSNSHRYINDNHYHHIVTPEAISLALENHEFKPWIQPVFCAQTGVLTGCEVLVRWEHPQTGIIPPDQFIPLAESSGLIVIMTRQLMKQTADILMPVKHLLPDNFHIGINVSAGCFLAAGFEKECLNLVNKLGNDKIKLVLELTERNPIPVTPEARAIFDSLHQHNITFALDDFGTGYATYRYLQAFPVDFIKIDKSFVQMASVDEISGHIVDNIVELARKPGLSIVAEGVETQEQADLMIGKGVHFLQGYLYSPPVPGNKFISEWVMKAGG
A word on the stoichiometry N: it is a count of units in the complex or per binding partner. For orientation: Kd means a measure of binding affinity in units of concentration. For the molecule B1, the entries for the “stoichiometry N” value in “mass photometry” and in “SEC-MALS” were 2 and 4, respectively. The Kd in the data set “MST” came to 9000 nM.

B2: CB CDB oligo (4695/4696) (dsDNA)
DNA 1: TGCTGAATGGATTCAGTCTTAATGAGTGGG
DNA 2: CCCACTCATTAAGACTGAATCCATTCAGCA
Regarding B2, the results for the Kd in the data set with Cra and with PdeL;Cra were 49 nM and 76 nM, respectively.

B3: PdeL L168R, tetramerization-deficient variant (enzyme, E. coli)
chain: NSCDFRVFLQEFGTTVHLSLPGSVSEKERLLLKLLMQGMSVTEISQYRNRSAKTISHQKKQLFEKLGIQSDITFWRDIFFQYNPEIISATGSNSHRYINDNHYHHIVTPEAISLALENHEFKPWIQPVFCAQTGVLTGCEVLVRWEHPQTGIIPPDQFIPLAESSGRIVIMTRQLMKQTADILMPVKHLLPDNFHIGINVSAGCFLAAGFEKECLNLVNKLGNDKIKLVLELTERNPIPVTPEARAIFDSLHQHNITFALDDFGTGYATYRYLQAFPVDFIKIDKSFVQMASVDEISGHIVDNIVELARKPGLSIVAEGVETQEQADLMIGKGVHFLQGYLYSPPVPGNKFISEWVMKAGG
As for B3, in “SEC-MALS”, the “stoichiometry N” value was determined as 2.
